The text below walks through data of publication PMC10471779 (2023).

Common to all, as to assay: SPR
In assay [1] the target is recombinant cynomolgus galectin-3 (cynomolgus).
Assay [2] addresses T1, recombinant rat galectin-3 (rat, UniProt P08699 1-262).
T1 chain: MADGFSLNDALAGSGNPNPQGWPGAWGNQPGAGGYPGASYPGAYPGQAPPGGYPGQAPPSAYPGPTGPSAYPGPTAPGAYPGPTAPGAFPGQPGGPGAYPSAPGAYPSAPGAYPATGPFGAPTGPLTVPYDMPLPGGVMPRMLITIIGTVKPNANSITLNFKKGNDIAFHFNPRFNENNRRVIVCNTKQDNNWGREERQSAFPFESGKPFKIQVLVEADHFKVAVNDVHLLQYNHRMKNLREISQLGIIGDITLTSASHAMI

For assay [3], the target named is T2, recombinant mouse galectin-3, full length, His-tagged (mGal-3-FL-His Nter) (mouse, UniProt P16110 1-264).
T2 chain: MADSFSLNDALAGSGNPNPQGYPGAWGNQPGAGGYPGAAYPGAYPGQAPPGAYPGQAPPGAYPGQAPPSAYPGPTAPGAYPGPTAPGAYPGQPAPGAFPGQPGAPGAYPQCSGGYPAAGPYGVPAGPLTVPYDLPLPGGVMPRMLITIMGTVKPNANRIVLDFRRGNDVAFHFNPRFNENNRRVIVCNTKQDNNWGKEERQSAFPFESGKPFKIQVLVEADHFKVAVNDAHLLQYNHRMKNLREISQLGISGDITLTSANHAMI

B1: D11 anti-Gal-3 monoclonal antibody (hIgG1 format, LALA) (antibody, V domains shown)
VH: EVQLVESGGSLVKPGGSLRLSCAASGFTFSNYNMNWVRQAPGKGLEWISSIYGSSRYIYYADFVKGRFTISRDNAKNSLYLQMNSLRAEDTAVYYCVRSSYGGMDVWGRGTLVTVSS
VL: QSVLTQPASVSGSPGQSITISCAGTSSDVGGSYNVAWYQQHPGKAPKLMIYYDSYRPSGVSNRFSGSKSGNTASLTISGLQAEDEADYYCSSYTGYSTRVFGGGTKLEIK
B1: the Kd in assay [1] worked out at 11.4 nM; in assay [2], 8.6 nM.

B2: E07 anti-Gal-3 monoclonal antibody (hIgG1 format, LALA) (antibody, V domains shown)
VH: EVQLVESGGSLVKPGGSLRLSCAASGFTFSNYNMNWVRQAPGKGLEWISNIYGSSRYIYYADFVKGRFTISRDNAKNSLYLQMNSLRAEDTAVYYCVRSYYGGMDVWGRGTLVTVSS
VL: QSVLTQPASVSGSPGQSITISCAGTSSDVGGYYSVSWYQQHPGKAPKLMIYYDSNRPSGVSNRFSGSKSGNTASLTISGLQAEDEADYYCSSYTGYSTRVFGGGTKLEIK
B2: the values for the Kd in assay [1] and in assay [3] were 7.1 nM and 4.1 nM, respectively.

One may read the Kd as the constant that tells how readily two partners part at equilibrium.
